± gives the standard deviation of the averaged measurements.
Test system: ATP
Assay: switch fluorescence ratio, 500 uM ATP over buffer (Cy3 cluster intensity, sum of 5 cycles each) (fold (ratio)); higher = stronger signal-on switching upon ATP binding; sequences stand for … in TCGTCGGCAGCGTCAGATGTGTATAAGAGACAGTTTTTTTTTTTTTTTTTTTTTTTTT…TC
Details: aptamer strand: ATP DNA aptamer (quencher-CACCTGGGGGAGTATTGCGGAGGAAGG + anchor), 100 nM annealed; ATP concentration: 500 uM
Procedure, shortened: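 The quencher-labelled ATP aptamer, at 100 nM, was annealed to Cy3-labelled switching-strand clusters on a modified Illumina MiSeq flow-cell. The clusters were imaged in selection buffer, then after 15 min with 500 uM ATP at 22 °C, and this buffer/ATP cycle ran five times with NaOH stripping and re-annealing between runs. Per-cluster fluorescence ratios, summed target-cycle over summed buffer-cycle Cy3 intensity, were averaged per switch-domain sequence. Clusters outside 100-1000 RFU were excluded.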
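Also: ATP exposure 15 min at 22 °C before imaging.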

Row | Sequence | switch fluorescence ratio
1 | CGCATGAGTT | 1.017 ± 0.0098
2 | CGCATTAAAA | 0.969 ± 0.024
3 | CGCATTGTGG | 1.02 ± 0.042
4 | CGCATTTAGG | 1.08 ± 0.027
5 | CGCATTTAGT | 1.12 ± 0.0063
6 | CGCATTTGGT | 1.07 ± 0.036
7 | CGCCAGAAGG | 0.9883 ± 0.0036
8 | CGCCAGCAGA | 1.33 ± 0.14
9 | CGCCAGCATA | 2.82 ± 0.31
10 | CGCCATATTT | 1.03 ± 0.016
11 | CGCCATGGAA | 1 ± 0.017
12 | CGCCCCGTCA | 0.954 ± 0.036
13 | CGCCCGCTGT | 1.72 ± 0.65
14 | CGCCCGGGGG | 1.32 ± 0.45
15 | CGCCGCACTT | 3.93 ± 1.1
16 | CGCCGCTTCA | 1.05 ± 0.067
17 | CGCCGGGTTT | 1.02 ± 0.018
18 | CGCCTAGAGG | 1.02 ± 0.032
19 | CGCCTCATTT | 1 ± 0.03
20 | CGCCTGGCGT | 0.9568 ± 0.0077
21 | CGCCTTTGTG | 1 ± 0.019
22 | CGCGAAGTTG | 0.999 ± 0.057
23 | CGCGCAGGGG | 1.69 ± 0.076

Row | Sequence | switch fluorescence ratio
24 | CGCGCATGGT | 1.14 ± 0.033
25 | CGCGCGGATT | 1.04 ± 0.034
26 | CGCGCGGTGT | 1.17 ± 0.2
27 | CGCGGGCCGT | 0.981 ± 0.024
28 | CGCGGGGATA | 1.18 ± 0.23
29 | CGCGGGTTGC | 1.06 ± 0.042
30 | CGCGGTATGG | 1.04 ± 0.022
31 | CGCGGTGGGA | 1.02 ± 0.026
32 | CGCGGTGGGC | 1.005 ± 0.0026
33 | CGCGGTTGC | 1.24 ± 0.038
34 | CGCGTAGACA | 0.992 ± 0.055
35 | CGCGTCGGGA | 0.976 ± 0.044
36 | CGCGTGGGCC | 1.03 ± 0.026
37 | CGCGTTAGA | 1.04 ± 0.017
38 | CGCGTTGAAA | 1.038 ± 0.0035
39 | CGCGTTGGGG | 1.03 ± 0.044
40 | CGCTAAAGCC | 1.156 ± 0.003
41 | CGCTACTGTT | 1.079 ± 0.0014
42 | CGCTACTTGA | 1.027 ± 0.0082
43 | CGCTATGTTT | 1.02 ± 0.019
44 | CGCTATTTCT | 1.1 ± 0.051
45 | CGCTCAAAGG | 1.03 ± 0.015
46 | CGCTCAGTTG | 1.13 ± 0.0039

Row | Sequence | switch fluorescence ratio
47 | CGCTCCGATG | 1.26 ± 0.025
48 | CGCTCCGGAG | 1.18 ± 0.14
49 | CGCTCCGGGG | 1.06 ± 0.07
50 | CGCTCTTATT | 0.978 ± 0.016
51 | CGCTCTTTTG | 1.02 ± 0.061
52 | CGCTGCTCGC | 1.3253 ± 0.00064
53 | CGCTGGCATG | 1 ± 0.032
54 | CGCTGGGTGG | 1.02 ± 0.037
55 | CGCTGTCGGA | 1.014 ± 0.0078
56 | CGCTGTGGCG | 0.983 ± 0.036
57 | CGCTGTGGGC | 0.988 ± 0.044
58 | CGCTTAAGTT | 1.004 ± 0.0013
59 | CGCTTAATTA | 1.01 ± 0.041
60 | CGCTTAGCCA | 1.01 ± 0.021
61 | CGCTTAGGCA | 1.02 ± 0.053
62 | CGCTTCTCTT | 1.03 ± 0.011
63 | CGCTTGGGGT | 0.9626 ± 0.0092
64 | CGCTTGGTCG | 1.03 ± 0.016
65 | CGCTTGTATT | 1.02 ± 0.013
66 | CGCTTTGGAA | 0.964 ± 0.064
67 | CGCTTTGGTT | 1.04 ± 0.012
68 | CGCTTTTCTT | 1.01 ± 0.0035
69 | CGCTTTTGCT | 0.969 ± 0.029

Row | Sequence | switch fluorescence ratio
70 | CGGAAAGCG | 1 ± 0.026
71 | CGGAAATGGG | 1.023 ± 0.0022
72 | CGGAACGAGA | 0.983 ± 0.025
73 | CGGAAGAAAT | 1.02 ± 0.017
74 | CGGAATGCAG | 1.076 ± 0.0032
75 | CGGAATTTTT | 0.971 ± 0.016
76 | CGGACATTCA | 1.041 ± 0.0082
77 | CGGACCGGGA | 1.06 ± 0.012
78 | CGGACGACGG | 1.01 ± 0.027
79 | CGGACGGGTG | 1.02 ± 0.018
80 | CGGACGTTTT | 1.17 ± 0.13
81 | CGGACTAAGA | 1.04 ± 0.012
82 | CGGACTAGTT | 0.994 ± 0.022
83 | CGGACTCCCA | 1.753 ± 0.014
84 | CGGACTGATT | 1 ± 0.064
85 | CGGAGAGATG | 1.042 ± 0.0034
86 | CGGAGATACG | 1.02 ± 0.029
87 | CGGAGCTCTG | 1.06 ± 0.015
88 | CGGAGGAACG | 1.01 ± 0.038
89 | CGGAGGACAA | 0.976 ± 0.012
90 | CGGAGGACCA | 0.978 ± 0.023
91 | CGGAGGACGG | 1.03 ± 0.032
92 | CGGAGGGAAA | 0.963 ± 0.033

Row | Sequence | switch fluorescence ratio
93 | CGGAGGGATC | 1.12 ± 0.037
94 | CGGAGGGGGT | 1.016 ± 0.0052
95 | CGGAGGTAGG | 1.01 ± 0.043
96 | CGGAGGTATA | 1.14 ± 0.017
97 | CGGAGGTTTC | 1.02 ± 0.03
98 | CGGAGTACAG | 1.09 ± 0.11
99 | CGGAGTAGGG | 1.058 ± 0.0023
100 | CGGAGTTAGC | 1.13 ± 0.028
101 | CGGATAGGTT | 1.01 ± 0.017
102 | CGGATATATA | 1.08 ± 0.049
103 | CGGATCAGAA | 0.9956 ± 0.001
104 | CGGATCCCGA | 0.995 ± 0.018
105 | CGGATCGGGG | 1.17 ± 0.15
106 | CGGATCGGGT | 1.004 ± 0.0015
107 | CGGATCTGGT | 0.968 ± 0.024
108 | CGGATCTTTA | 1.01 ± 0.037
109 | CGGATGAATG | 0.999 ± 0.029
110 | CGGATGCATG | 1.02 ± 0.046
111 | CGGATGGTGT | 0.97 ± 0.029
112 | CGGATTAATT | 0.9862 ± 0.0024
113 | CGGATTCGGA | 1.012 ± 0.01
114 | CGGATTGAAG | 1.007 ± 0.0092
115 | CGGATTTTAT | 1.02 ± 0.035

Row | Sequence | switch fluorescence ratio
116 | CGGCAAGTAT | 1.063 ± 0.0089
117 | CGGCAGCGAG | 1.078 ± 0.0015
118 | CGGCAGGCAC | 1.21 ± 0.037
119 | CGGCAGTTCG | 0.979 ± 0.014
120 | CGGCATATAG | 1.99 ± 0.2
121 | CGGCATTCAA | 0.9989 ± 0.0057
122 | CGGCCATTCG | 0.982 ± 0.021
123 | CGGCCGAACT | 1.033 ± 0.0064
124 | CGGCCGAGGT | 1.02 ± 0.02
125 | CGGCCGGACT | 1.01 ± 0.047
126 | CGGCCGGGGT | 1.035 ± 0.0058
127 | CGGCCGTTCG | 1.1 ± 0.14
128 | CGGCCTACAG | 1.05 ± 0.028
129 | CGGCCTCTGC | 1.15 ± 0.091
130 | CGGCCTGCG | 1.02 ± 0.1
131 | CGGCCTTGGT | 1.01 ± 0.044
132 | CGGCGCTTCT | 1.1 ± 0.028
133 | CGGCGGCGGG | 1.03 ± 0.015
134 | CGGCGGGCAA | 1.81 ± 0.69
135 | CGGCGGGGAA | 0.9757 ± 0.00091
136 | CGGCTGACGA | 1.03 ± 0.041
137 | CGGCTGGCTT | 1 ± 0.033
138 | CGGCTGTGTG | 0.974 ± 0.02

Row | Sequence | switch fluorescence ratio
139 | CGGGAAATTG | 0.9893 ± 0.0035
140 | CGGGAACATT | 1.01 ± 0.017
141 | CGGGAAGGAG | 0.9685 ± 0.0053
142 | CGGGACGCGA | 1.28 ± 0.043
143 | CGGGACGGGG | 0.967 ± 0.022
144 | CGGGACTTGT | 0.952 ± 0.067
145 | CGGGAGACAT | 1.01 ± 0.014
146 | CGGGAGACGG | 1.31 ± 0.26
147 | CGGGAGGGAA | 1.02 ± 0.023
148 | CGGGAGGGGA | 1 ± 0.025
149 | CGGGAGTGCG | 1.02 ± 0.024
150 | CGGGATAGTA | 0.994 ± 0.041
151 | CGGGATCATT | 0.958 ± 0.017
152 | CGGGATGGCC | 1 ± 0.018
153 | CGGGATGTAG | 0.987 ± 0.026
154 | CGGGATTGGT | 1.01 ± 0.13
155 | CGGGCAAGGG | 1.19 ± 0.029
156 | CGGGCAATCA | 1.58 ± 0.11
157 | CGGGCACGTG | 0.946 ± 0.021
